The target in the assay is T1, Mnl1 (C579S)–FLAG (S. cerevisiae, UniProt P38888 21-796, C579S).
T1 construct: Mnl1 (Htm1) of S. cerevisiae with a substituted loop cysteine; source: S. cerevisiae, overexpressed together with Pdi1, purified as a complex (anti-FLAG M2 resin, Superdex 200); not shown: FLAG, C-terminal, kept
T1 sequence (looked up): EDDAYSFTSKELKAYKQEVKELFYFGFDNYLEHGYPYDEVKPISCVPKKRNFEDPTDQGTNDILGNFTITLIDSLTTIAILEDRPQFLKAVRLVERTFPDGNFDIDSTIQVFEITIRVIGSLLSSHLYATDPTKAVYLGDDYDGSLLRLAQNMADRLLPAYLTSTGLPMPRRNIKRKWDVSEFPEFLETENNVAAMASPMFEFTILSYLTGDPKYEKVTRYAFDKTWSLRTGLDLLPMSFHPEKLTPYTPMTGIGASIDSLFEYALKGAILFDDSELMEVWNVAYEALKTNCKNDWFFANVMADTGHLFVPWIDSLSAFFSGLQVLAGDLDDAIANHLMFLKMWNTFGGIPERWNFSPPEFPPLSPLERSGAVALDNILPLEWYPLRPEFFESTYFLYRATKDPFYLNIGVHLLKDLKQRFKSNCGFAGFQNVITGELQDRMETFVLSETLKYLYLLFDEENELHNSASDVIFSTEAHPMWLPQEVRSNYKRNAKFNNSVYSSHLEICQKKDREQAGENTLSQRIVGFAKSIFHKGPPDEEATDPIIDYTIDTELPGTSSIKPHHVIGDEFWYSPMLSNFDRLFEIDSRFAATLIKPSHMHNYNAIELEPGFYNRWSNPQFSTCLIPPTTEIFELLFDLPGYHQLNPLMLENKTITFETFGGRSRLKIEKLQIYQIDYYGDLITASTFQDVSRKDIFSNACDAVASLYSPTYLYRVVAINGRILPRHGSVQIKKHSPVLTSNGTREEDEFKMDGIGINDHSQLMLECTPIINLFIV
The assay is described as follows: cross-linking; purified complexes of Pdi1 with wild-type or mutant Mnl1 incubated with increasing concentrations of DPS (2,2′-dipyridyldisulfide) to induce disulfides; non-reducing SDS-PAGE, Coomassie blue. The note with it: both partners purified.

B1: Pdi1 (protein disulfide isomerase) (enzyme, S. cerevisiae, UniProt P17967 29-522, looked up)
chain: PEDSAVVKLATDSFNEYIQSHDLVLAEFFAPWCGHCKNMAPEYVKAAETLVEKNITLAQIDCTENQDLCMEHNIPGFPSLKIFKNSDVNNSIDYEGPRTAEAIVQFMIKQSQPAVAVVADLPAYLANETFVTPVIVQSGKIDADFNATFYSMANKHFNDYDFVSAENADDDFKLSIYLPSAMDEPVVYNGKKADIADADVFEKWLQVEALPYFGEIDGSVFAQYVESGLPLGYLFYNDEEELEEYKPLFTELAKKNRGLMNFVSIDARKFGRHAGNLNMKEQFPLFAIHDMTEDLKYGLPQLSEEAFDELSDKIVLESKAIESLVKDFLKGDASPIVKSQEIFENQDSSVFQLVGKNHDEIVNDPKKDVLVLYYAPWCGHCKRLAPTYQELADTYANATSDVLIAKLDHTENDVRGVVIEGYPTIVLYPGGKKSESVVYQGSRSLDSLFDFIKENGHFDVDGKALYEEAQEKAAEEADADAELADEEDAIHDEL
notes: Pdi1, protein disulfide isomerase of S. cerevisiae, untagged; Trx domains a, b, b′ and a′; amino acids 24–500 could be modelled; source: S. cerevisiae, overexpressed together with Mnl1–FLAG (GAL1 promoter), purified as a complex
As to B1, the binding result is listed as “binds”.

These data come from article PMC12170172, “Initiation of ERAD by the bifunctional complex of Mnl1/Htm1 mannosidase and protein disulfide isomerase” (Nature Structural & Molecular Biology, 2025).
